According to article PMC12442453, “An asymmetric tetrabody is a potent and efficacious agonist of the erythropoietin receptor in vitro and in vivo” (Protein Science : A Publication of the Protein Society, 2025):
Residue numbers refer to the chain shown, from its start.

Key:
[1] = molecular target: T1, human EPOR ectodomain (ECD) fused to a human Fc domain (EPOR-Fc) (human, UniProt P19235); assay: ELISA; EPOR-Fc (human or mouse) immobilised by results and legends, Db-Fc or VL–VH protein in solution (single point and serial dilutions), 1 h room temperature, PBST, anti-Fc-HRP; apparent affinities; the methods name His-EPOR as the coated protein; settings: both partners purified
T1 construct: erythropoietin receptor (EPOR), human, ectodomain; Results and legends name EPOR-Fc as the immobilised protein of the ELISA and BLI experiments; the methods describe His-EPOR instead; also called human EPOR-Fc

[2] = molecular target: T1, human EPOR ectodomain (ECD) fused to a …; assay: BLI; results and legends: EPOR-Fc immobilised, Db-Fc in solution, 600 s association, 600 s dissociation, global 1:1 fit; methods: Abs captured on anti-human Fc sensors, His-EPOR in solution in 3-fold dilutions from 100 nM, 25°C, PBS 0.05% Tween 20; settings: both partners purified
His-tagged ECD of CD131 = molecular target: T2, His-tagged ECD of CD131 (Homo sapiens (assumed), UniProt P32927); assay: ELISA; His-tagged ECDs of EPOR, CD131 or EPHB4 tested against Db-Fc protein; settings: both partners purified
T2 construct: β-common cytokine receptor (β-CR, CD131), ectodomain; also called β-common cytokine receptor; β-CR

His-tagged ECD of EPHB4 = molecular target: T3, His-tagged ECD of EPHB4 (Homo sapiens (assumed), UniProt P54760); assay: as above; settings: both partners purified
T3 construct: receptor tyrosine kinase EPHB4, ectodomain

[3] = molecular target: human EPOR, endogenous on TF-1 cells (Homo sapiens (TF-1 cells), UniProt P19235); assay: cell-based or functional assay
human EPOR, endogenous on TF-1 cells, sequence (P19235 25-508): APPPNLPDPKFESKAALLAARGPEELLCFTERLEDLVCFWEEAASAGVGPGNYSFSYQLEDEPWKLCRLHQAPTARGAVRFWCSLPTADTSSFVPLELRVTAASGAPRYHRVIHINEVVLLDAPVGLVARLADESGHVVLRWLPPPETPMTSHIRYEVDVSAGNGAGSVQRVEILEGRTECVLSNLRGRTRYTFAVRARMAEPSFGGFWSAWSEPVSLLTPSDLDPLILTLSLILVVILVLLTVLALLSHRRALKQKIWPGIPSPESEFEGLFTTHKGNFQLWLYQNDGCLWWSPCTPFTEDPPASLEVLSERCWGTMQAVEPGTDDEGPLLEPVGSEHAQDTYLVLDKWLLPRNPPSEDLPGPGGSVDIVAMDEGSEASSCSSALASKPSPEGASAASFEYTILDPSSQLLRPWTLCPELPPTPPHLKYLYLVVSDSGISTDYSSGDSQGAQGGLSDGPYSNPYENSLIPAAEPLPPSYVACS

T1 sequence (P19235 25-250): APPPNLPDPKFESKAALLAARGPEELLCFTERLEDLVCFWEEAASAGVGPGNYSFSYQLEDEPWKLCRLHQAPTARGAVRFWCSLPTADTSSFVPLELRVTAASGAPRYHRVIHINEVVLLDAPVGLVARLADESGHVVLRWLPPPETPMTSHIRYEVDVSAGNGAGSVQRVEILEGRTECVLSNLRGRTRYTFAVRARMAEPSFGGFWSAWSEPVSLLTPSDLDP
T2 sequence (P32927 17-443): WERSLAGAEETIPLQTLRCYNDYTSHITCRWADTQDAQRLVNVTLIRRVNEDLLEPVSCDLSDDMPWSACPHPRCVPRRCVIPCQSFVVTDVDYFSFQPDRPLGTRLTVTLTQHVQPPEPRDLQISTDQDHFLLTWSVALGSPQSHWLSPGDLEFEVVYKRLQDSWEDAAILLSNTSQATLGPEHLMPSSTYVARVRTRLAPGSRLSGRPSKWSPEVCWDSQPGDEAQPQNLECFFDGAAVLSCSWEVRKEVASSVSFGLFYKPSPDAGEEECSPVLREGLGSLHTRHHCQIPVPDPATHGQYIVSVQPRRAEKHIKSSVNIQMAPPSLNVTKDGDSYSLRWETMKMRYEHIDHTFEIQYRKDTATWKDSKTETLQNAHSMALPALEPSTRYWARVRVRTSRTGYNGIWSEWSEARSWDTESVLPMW
T3 sequence (P54760 16-539): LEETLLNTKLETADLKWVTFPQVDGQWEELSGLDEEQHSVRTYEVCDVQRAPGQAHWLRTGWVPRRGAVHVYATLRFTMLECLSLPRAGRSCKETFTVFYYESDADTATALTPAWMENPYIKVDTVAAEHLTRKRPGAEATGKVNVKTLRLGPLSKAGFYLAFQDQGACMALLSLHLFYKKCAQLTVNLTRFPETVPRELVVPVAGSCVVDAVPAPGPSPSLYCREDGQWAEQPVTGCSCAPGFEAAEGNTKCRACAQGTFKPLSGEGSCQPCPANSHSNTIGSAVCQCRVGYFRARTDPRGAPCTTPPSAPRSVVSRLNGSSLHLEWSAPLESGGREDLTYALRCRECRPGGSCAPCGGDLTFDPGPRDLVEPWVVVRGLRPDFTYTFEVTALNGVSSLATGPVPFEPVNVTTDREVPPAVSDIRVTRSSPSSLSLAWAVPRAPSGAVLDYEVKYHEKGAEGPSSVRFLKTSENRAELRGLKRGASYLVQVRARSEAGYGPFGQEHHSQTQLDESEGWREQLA

B1: Db-Fc 1 (Fc fusion)
VH: EVQLVESGGGLVQPGGSLRLSCAASGFNLYSYYIHWVRQAPGKGLEWVASISPYYSYTYYADSVKGRFTISADTSKNTAYLQMNSLRAEDTAVYYCARHGYGAMDYWGQGTLVTVSS
VL: DIQMTQSPSSLSASVGDRVTITCRASQSVSSAVAWYQQKPGKAPKLLIYSASSLYSGVPSRFSGSRSGTDFTLTISSLQPEDFATYYCQQSSYSLITFGQGTKVEIK
notes: VL domain of clone 1 (human framework of the Db library); Gly5 linker between VL and VH; VH domain of clone 1; IMGT numbering, heavy chain; Diabody-Fc fusion (VL-Gly5-VH-Fc); Protein-A purified preparation: mainly the dimeric Db-Fc, with a minor earlier-eluting SEC peak (putative Tb-Fc2); also called Db 1; VL–VH 1; source: Expi293, transient expression, purified (rProtein-A); not shown: Fc, …
- EC50 [1]: 1.5 nM
- Kd [2]: 1.5 nM
- binding result (His-tagged ECD of CD131): no binding
- binding result (His-tagged ECD of EPHB4): no binding
- UT-7/Epo cell proliferation (ATP/luciferase luminescence), EC50 [3]: 0.2 nM

B2: Db-Fc 1.3 (Fc fusion)
VH: B1 VH with Y30R, I34M, Y54H, S56G, G102S
VL: B1 VL with Y93D, I96F
notes: VL domain of variant 1.3; derived from the library on Db 1.1 (PDB 9NWU); Gly5 linker between VL and VH; VH domain of variant 1.3; the fraction is named in the readout of each functional row; also called variant 1.3; VL–VH 1.3; source: Expi293, transient expression, purified (rProtein-A); fractions by preparative SEC; not shown: Fc, C-terminal, kept
- binding result [2]: binds

B3: Db-Fc 1.1 (Fc fusion)
VH: B1 VH with Y30R, I34M
VL: B1 VL
notes: VL domain of variant 1.1; Gly5 linker between VL and VH; VH domain of variant 1.1; Diabody-Fc fusion; >99% eluted as the Db-Fc form by SEC; Called Db-Fcmix 1.1 where not fractionated by preparative SEC; also called variant 1.1; Db-Fcmix 1.1; source: Expi293, transient expression, purified (rProtein-A); not shown: Fc, C-terminal, kept
- Kd [2]: 5 nM

B4: Db-Fc 1.2 (Fc fusion)
VH: B1 VH with Y30R, I34M, S52A, Y55H, S56G, M104L
VL: B1 VL with Y93N, S94F
notes: VL domain of variant 1.2; Gly5 linker between VL and VH; VH domain of variant 1.2; Diabody-Fc fusion; nearly homogeneous Db-Fc peak by SEC; In vivo used both as unfractionated mixture and as the Db-Fc fraction from preparative SEC; also called variant 1.2; Db-Fcmix 1.2; source: Expi293, transient expression, purified (rProtein-A); not shown: Fc, C-terminal, kept
- Kd [2]: 1.8 nM

B5: Db-Fc 2 (Fc fusion)
VH: B1 VH with Y30S, G100S, G102A, M104L
VL: DIQMTQSPSSLSASVGDRVTITCRASQSVSSAVAWYQQKPGKAPKLLIYSASSLYSGVPSRFSGSRSGTDFTLTISSLQPEDFATYYCQQAYWPITFGQGTKVEIK
notes: VL domain of clone 2 (human framework of the Db library); Gly5 linker between VL and VH; VH domain of clone 2; Diabody-Fc fusion (VL-Gly5-VH-Fc); Protein-A purified preparation: mainly the dimeric Db-Fc, with a minor earlier-eluting SEC peak; also called Db 2; VL–VH 2; source: Expi293, transient expression, purified (rProtein-A); not shown: Fc, C-terminal, kept
- EC50 [1]: 0.6 nM
- Kd [2]: 5.1 nM
- binding result (His-tagged ECD of CD131): no binding
- binding result (His-tagged ECD of EPHB4): no binding
- UT-7/Epo cell proliferation (ATP/luciferase luminescence), EC50 [3]: 0.4 nM
